Measurements taken from the supplement of paper PMC10567573.
± gives the standard deviation.

Assay: protein stability index of a GFP-peptide fusion (GPS, HEK-293T) (PSI 1-6); higher = more stable
[1] = treatment: DMSO, c terminus: a fixed tail appended
[2] = treatment: MLN4924 1 uM, 8 h, c terminus: a fixed tail appended
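Further: 24-mer peptide tiles fused after GFP, lentivirally expressed, FACS-sorted into six equal bins by GFP/DsRed ratio, decoded by Illumina sequencing, PSI is the read-weighted mean bin number.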

| Sequence | protein stability index [1] | protein stability index [2] | protein stability index (treatment: DMSO, c terminus: native) | protein stability index (treatment: MLN4924 1 uM, 8 h, c terminus: native) |
| --- | --- | --- | --- | --- |
| GSSYPTTTISYLPHAPPFAGGHPA [JUNB] | 3.12 ± 0.14 | 3.09 ± 0.13 | – | – |
| IETEDQIDKKPVSEKTDESDTIPY [MIA2] | 5.53 ± 0.3 | 5.3 ± 0.36 | – | – |
| NRIGNSGVEEIKGHPFFEGVDWEH [STK38L] | 4.32 ± 0.26 | 4.45 ± 0.21 | – | – |
| IQGADTIRCVYILDPWFAGSSNVG [CRY1] | 2.81 ± 0.56 | 2.6 ± 0.54 | – | – |
| NGGMATTSAEIELPDVEPAAFLAL [BTBD1] | 3.86 ± 0.25 | 4.02 ± 0.22 | – | – |
| GCNSVLIQFATPNDFCSFYNILKT [CARM1] | 3.23 ± 0.62 | 2.84 ± 0.61 | – | – |
| MERPMSQADLELDYNPPRVQLSDE [CBY2] | 5.36 ± 0.22 | 5.22 ± 0.21 | – | – |
| GSAVARAVCKATTHEVMGPKKKHL [SNAP91] | 4.58 ± 0.19 | 4.83 ± 0.17 | – | – |
| DLSVEERSFVEKHRWPSNMYLKQL [RHOBTB3] | 3.01 ± 0.24 | 2.98 ± 0.18 | – | – |
| LEETEPPLEPEDALSDAEFEGEGD [P3H4] | 5.49 ± 0.33 | 5.55 ± 0.17 | – | – |
| ETRVWHRRDGKWQIVHFHRSGAPS [CAMK2A] | 2.95 ± 0.07 | 3.1 ± 0.25 | – | – |
| ENDGFVFKMPWKPTHPSSTHALAE [CDC25B] | 3.55 ± 0.44 | 3.36 ± 0.16 | – | – |
| YQGGPPRPPMGMRPPVMSQGGRY [ZNF207] | – | – | 2.56 ± 0.27 | 2.84 ± 0.3 |
| AGDRFLEALGFSWHDTCFVCAICQ [PDLIM7] | 2.32 ± 0.4 | 2.52 ± 0.28 | – | – |
| TFVSGGCDKKAMVWDMRSGQCVQA [GNB5] | 2.68 ± 0.2 | 2.89 ± 0.46 | – | – |
| DINLSVRKLLNRHNIVFGDYTWTE [TRIP13] | 2.28 ± 0.29 | 2.22 ± 0.4 | – | – |
| FSAHYDAVEAELKSSTVGLVTLND [FAM50A] | 3.86 ± 0.16 | 3.94 ± 0.32 | – | – |
| YDRRVIRGNTYALQTGPLLGRPDS [RSPH3] | 3.29 ± 0.24 | 3.56 ± 0.25 | – | – |
| LAHLGRHMEALEIAANLENKATNT [C8orf76] | 4.22 ± 0.17 | 4.29 ± 0.37 | – | – |
| VYSNTIQSIIAIIRAMGRLKIDFG [GNAI1] | 2.7 ± 0.53 | 2.13 ± 0.29 | – | – |
| LPPDVTTQSVMGFDPLPPSDTIYS [TCF25] | 4.19 ± 0.16 | 4.37 ± 0.34 | – | – |
| RVGIFLDYEAGTLSFYNVTDRSHI [TRIM39] | 2.6 ± 0.77 | 2.26 ± 0.35 | – | – |
| VPGIFCAGADLKERAKMSSSEVGP [AUH] | 3.59 ± 0.34 | 3.64 ± 0.29 | – | – |

| Sequence | protein stability index [1] | protein stability index [2] | protein stability index (treatment: DMSO, c terminus: native) | protein stability index (treatment: MLN4924 1 uM, 8 h, c terminus: native) |
| --- | --- | --- | --- | --- |
| HHPENGEEAVTVLEDLESELDDPG [ZNF24] | 5.49 ± 0.22 | 5.65 ± 0.16 | – | – |
| ELESLSAIEAELEKVAHQLQALRR [CHGA] | 4.74 ± 0.22 | 4.97 ± 0.4 | – | – |
| KLKALHVDSAEYSCLKAIVLFTSD [NR2F2] | 2.45 ± 0.36 | 2.27 ± 0.15 | – | – |
| GQVTPRGLRLRLPRRESLLRGLCR [C6orf223] | 3.24 ± 0.33 | 3.23 ± 0.34 | – | – |
| AIGGTYLGPAFRGLKGRTLYPAVS [SPSB2] | 2.51 ± 0.16 | 2.69 ± 0.19 | – | – |
| LEDELDKSVQGTGLAFIAFTEAMT [SLC6A17] | 2.73 ± 0.35 | 2.82 ± 0.51 | – | – |
| REVEARYALQMEQLNGILLHLESE [KRT18] | 2.98 ± 0.63 | 3.16 ± 0.53 | – | – |
| DLRVLVSNASEDTRRLRLAHVGME [SCARA5] | 2.9 ± 0.17 | 3.15 ± 0.11 | – | – |
| LGKTEQGFENMDFFTLDLEHIADA [TRIM63] | 3.85 ± 0.21 | 3.8 ± 0.12 | – | – |
| TDSKELSMAKEVIAKELSKTYQET [ZBED1] | 4.91 ± 0.1 | 4.82 ± 0.57 | – | – |
| LLKITIPNAFIGSDVVDWLYHNVE [DVL3] | 2.31 ± 0.63 | 2.26 ± 0.28 | – | – |
| GQPFNSDDRNTACHHGLVADSLQA [DLC1] | 4.49 ± 0.2 | 4.63 ± 0.1 | – | – |
| MLSKGLKRKREEEEEKEPLAVDSW [SERTAD1] | 4.84 ± 0.25 | 4.87 ± 0.092 | – | – |
| ARSRALRRRWCPAGIMLLALVCLL [SPACA3] | 2.23 ± 0.29 | 2.23 ± 0.19 | – | – |
| TSRDRKDHMVRMHLYPADFRFDKP [ZNF511] | 2.87 ± 0.31 | 3.22 ± 0.14 | – | – |
| QEEEEDNRDSSMKLSFRARAYGFR [CHGA] | 4.58 ± 0.13 | 4.62 ± 0.28 | – | – |
| DKNLTEREVFNEIYPVWTYSYLVL [SLC19A2] | 2.81 ± 0.64 | 2.65 ± 0.46 | – | – |
| ISKKFGDMSYSIRHSISMPAMRNS [TPD52L1] | 2.51 ± 0.41 | 2.65 ± 0.52 | – | – |
| RQMAFDFARVKKGADGVMRTMAPE [SNAP91] | 3.47 ± 0.38 | 3.43 ± 0.16 | – | – |
| GPPRAPGRSGWPAGGAPGSPIPSP [HES6] | 4.32 ± 0.18 | 4.26 ± 0.2 | – | – |
| LKERCAQDACQAQAREKELLELQS [CCDC89] | 4.1 ± 0.26 | 4 ± 0.51 | – | – |
| GMLKEGVRLDRVRGGRQKYKRRID [ESRRG] | 4.19 ± 0.14 | 4.15 ± 0.33 | – | – |
